From patent publication US20040253632A1 come the findings set out here.

Holding throughout (experiment): cell-based or functional assay
The target in assay [1] is DO11.10 TCR (endogenous T cell receptor of the DO11.10 T cell hybridoma).
In assay [2] the target is DO11.10 scTCR/murine CD3ζ fusion molecule (membrane-bound, on transfected cells) (mouse) (UniProt P24161).
The target of assay [3] is DO11.10 TCR (endogenous T cell receptor of the DO11.10 T cell hybridoma). This is another data set of the same source.
The target in assay [4] is 2B4 TCR (endogenous T cell receptor of the 2B4 T cell hybridoma) (mouse).

Like-named read-outs stand apart in the source and are kept apart here.

Chain of UniProt P24161 (P24161 whole entry, the tested form may be a part): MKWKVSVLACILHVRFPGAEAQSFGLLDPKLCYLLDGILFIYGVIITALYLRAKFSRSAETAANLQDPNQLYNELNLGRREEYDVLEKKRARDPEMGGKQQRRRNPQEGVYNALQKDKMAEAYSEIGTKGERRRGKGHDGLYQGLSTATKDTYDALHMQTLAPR

In assay [1], “multi-valent scIA^d/OVA-BirA complexes (biotinylated scIA^d/OVA-BirA bound to avidin) (from UniProt P02701 25-152) (peptide-MHC)” returned an IL-2 ELISA value; DO11.10 cells; 31 ng complex/well of 0.554 A450, an IL-2 ELISA value; DO11.10 cells; 62 ng complex/well of 0.744 A450, an IL-2 ELISA value; DO11.10 cells; 125 ng complex/well of 0.916 A450 and an IL-2 ELISA value; DO11.10 cells; 500 ng complex/well of 1.6 A450. This substance also showed an IL-2 ELISA value; DO11.10 cells; 1000 ng complex/well in assay [1] of 1.86 A450.

With “single-chain IA^d linked to HSV-1 glycoprotein D peptide GD 246-261 (scIA^d/GD), monovalent (peptide-MHC)”, in assay [1], the IL-2 ELISA value; DO11.10 T cells; 100 ng complex/well was 0.152 A405. In addition, in assay [2], the IL-2 ELISA value; DO11.10 scTCR 2B4 transfectants; 7 ng complex/well stood at 0.163 A405, the IL-2 ELISA value; DO11.10 scTCR 2B4 transfectants; 15 ng complex/well was 0.152 A405, the IL-2 ELISA value; DO11.10 scTCR 2B4 transfectants; 31 ng complex/well was determined as 0.213 A405 and the IL-2 ELISA value; DO11.10 scTCR 2B4 transfectants; 62 ng complex/well was determined as 0.164 A405. In assay [2], this substance displayed an IL-2 ELISA value; DO11.10 scTCR 2B4 transfectants; 125 ng complex/well of 0.179 A405 and an IL-2 ELISA value; DO11.10 scTCR 2B4 transfectants; 250 ng complex/well of 0.227 A405. Further, in assay [3], the IL-2 ELISA value; DO11.10 T cells; 7 ng complex/well was 0.163 A405, the IL-2 ELISA value; DO11.10 T cells; 15 ng complex/well was 0.152 A405, the IL-2 ELISA value; DO11.10 T cells; 31 ng complex/well was determined as 0.213 A405 and the IL-2 ELISA value; DO11.10 T cells; 62 ng complex/well came to 0.164 A405. Also, in assay [3], the IL-2 ELISA value; DO11.10 T cells; 125 ng complex/well is 0.179 A405 and the IL-2 ELISA value; DO11.10 T cells; 250 ng complex/well worked out at 0.18 A405.

For “scIA^d/GD-IgM fusion (scIA^d/GD fused to CH2-CH3-CH4 of human IgM heavy chain), multi-valent (from UniProt P01871 106-453) (peptide-MHC)”, in assay [1], the IL-2 ELISA value; DO11.10 T cells; 0.3 ng complex/well was 0.189 A405, the IL-2 ELISA value; DO11.10 T cells; 1 ng complex/well came to 0.184 A405, the IL-2 ELISA value; DO11.10 T cells; 4 ng complex/well worked out at 0.179 A405 and the IL-2 ELISA value; DO11.10 T cells; 11 ng complex/well was 0.188 A405. In assay [1], this substance displayed an IL-2 ELISA value; DO11.10 T cells; 33 ng complex/well of 0.206 A405, an IL-2 ELISA value; DO11.10 T cells; 100 ng complex/well of 0.221 A405 and an IL-2 ELISA value; DO11.10 T cells; 300 ng complex/well of 0.248 A405. In assay [2], this substance returned an IL-2 ELISA value; BWDZ:CD4+ transfectants; 40 ng complex/well of 0.282 A405, an IL-2 ELISA value; BWDZ:CD4+ transfectants; 200 ng complex/well of 0.309 A405, an IL-2 ELISA value; BWDZ:CD4+ transfectants; 1000 ng complex/well of 0.375 A405 and an IL-2 ELISA value; DO11.10 scTCR 2B4 transfectants; 1 ng complex/well of 0.196 A405. Also, in assay [2], the IL-2 ELISA value; DO11.10 scTCR 2B4 transfectants; 3 ng complex/well was 0.19 A405, the IL-2 ELISA value; DO11.10 scTCR 2B4 transfectants; 7 ng complex/well was found to be 0.213 A405, the IL-2 ELISA value; DO11.10 scTCR 2B4 transfectants; 15 ng complex/well amounted to 0.199 A405 and the IL-2 ELISA value; DO11.10 scTCR 2B4 transfectants; 31 ng complex/well stood at 0.226 A405. In assay [2], this substance registered an IL-2 ELISA value; DO11.10 scTCR 2B4 transfectants; 62 ng complex/well of 0.224 A405, an IL-2 ELISA value; DO11.10 scTCR 2B4 transfectants; 125 ng complex/well of 0.233 A405 and an IL-2 ELISA value; DO11.10 scTCR 2B4 transfectants; 250 ng complex/well of 0.224 A405. Further, in assay [3], the IL-2 ELISA value; DO11.10 T cells; 1 ng complex/well was 0.153 A405, the IL-2 ELISA value; DO11.10 T cells; 3 ng complex/well came out at 0.14 A405, the IL-2 ELISA value; DO11.10 T cells; 7 ng complex/well is 0.148 A405 and the IL-2 ELISA value; DO11.10 T cells; 15 ng complex/well was 0.14 A405. In assay [3], this substance displayed an IL-2 ELISA value; DO11.10 T cells; 31 ng complex/well of 0.165 A405, an IL-2 ELISA value; DO11.10 T cells; 62 ng complex/well of 0.157 A405, an IL-2 ELISA value; DO11.10 T cells; 125 ng complex/well of 0.18 A405 and an IL-2 ELISA value; DO11.10 T cells; 250 ng complex/well of 0.193 A405.

Consider “single-chain IE^k linked to PCC 88-104 (scIE^k/PCC) (peptide-MHC)”, for which, in assay [4], the IL-2 ELISA absorbance; 2B4 T cells; 12.5 ng/well immobilized scIE^k/PCC worked out at 0.054 A450, the IL-2 ELISA absorbance; 2B4 T cells; 25 ng/well immobilized scIE^k/PCC was 0.081 A450, the IL-2 ELISA absorbance; 2B4 T cells; 50 ng/well immobilized scIE^k/PCC came to 0.234 A450 and the IL-2 ELISA absorbance; 2B4 T cells; 100 ng/well immobilized scIE^k/PCC was found to be 0.413 A450. In assay [4], this substance displayed an IL-2 ELISA absorbance; 2B4 T cells; 200 ng/well immobilized scIE^k/PCC of 0.485 A450 and an IL-2 ELISA absorbance; 2B4 T cells; 400 ng/well immobilized scIE^k/PCC of 0.216 A450.

On to “scIA^d/OVA-IgG multimer (scIA^d/OVA-Cκ fusion with scIA^d/OVA-IgG2b heavy chain fusion) (peptide-MHC)”, for which, in assay [1], the IL-2 ELISA value; DO11.10 T cells; 12.5 ng complex/well is 0.184 A405, the IL-2 ELISA value; DO11.10 T cells; 25 ng complex/well came out at 0.758 A405, the IL-2 ELISA value; DO11.10 T cells; 50 ng complex/well turned out to be 2.11 A405 and the IL-2 ELISA value; DO11.10 T cells; 100 ng complex/well came out at 2.9 A405.
